According to article PMC4434323:

Molecular target: T1, Y53H1A.2 (Y53H1A.2) (Caenorhabditis elegans) (UniProt B1V8K4)
T1 sequence: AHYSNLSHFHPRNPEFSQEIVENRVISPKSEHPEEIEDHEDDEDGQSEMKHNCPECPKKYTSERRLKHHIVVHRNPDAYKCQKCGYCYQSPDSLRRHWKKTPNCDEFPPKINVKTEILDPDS

In the case of “CGCCCACC (double strand) [8-mer CGCCCACC]”, the binding signal (PBM E-score (-0.5 to 0.5)) is reported as 0.484.

Molecular target: T2, ztf-29 (Y66D12A.12) (Caenorhabditis elegans) (UniProt Q95Q03)
T2 sequence: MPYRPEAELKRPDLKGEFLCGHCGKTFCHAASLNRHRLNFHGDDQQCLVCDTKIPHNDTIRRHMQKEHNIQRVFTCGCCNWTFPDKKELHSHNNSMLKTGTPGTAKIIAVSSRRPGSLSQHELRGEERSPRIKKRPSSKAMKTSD

First: AAGCTTGT (double strand) [8-mer AAGCTTGT]
Second: AAAAGCTT (double strand) [8-mer AAAAGCTT]
The binding signal (PBM E-score (-0.5 to 0.5)) of the first is lower: 0.489 for the first, 0.492 for the second.

Molecular target: T3, ZK337.2 (ZK337.2) (Caenorhabditis elegans) (UniProt O46016)
T3 sequence: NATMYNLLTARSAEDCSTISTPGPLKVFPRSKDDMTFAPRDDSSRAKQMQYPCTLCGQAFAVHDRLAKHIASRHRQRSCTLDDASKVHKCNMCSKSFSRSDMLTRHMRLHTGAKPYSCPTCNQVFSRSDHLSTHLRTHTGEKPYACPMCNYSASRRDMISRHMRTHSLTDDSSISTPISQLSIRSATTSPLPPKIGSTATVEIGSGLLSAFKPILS

First: CGCCCACA (double strand) [8-mer CGCCCACA]
Second: CCGCCCCC (double strand) [8-mer CCGCCCCC]
The binding signal (PBM E-score (-0.5 to 0.5)) of the first is lower: 0.484 for the first, 0.495 for the second.

Compared with “GCCCCCGC (double strand) [8-mer GCCCCCGC]”, “CCACCCAC (double strand) [8-mer CCACCCAC]” is higher in binding signal (PBM E-score (-0.5 to 0.5)): 0.489 for the first, 0.491 for the second.

First: CACCCACG (double strand) [8-mer CACCCACG]
Second: CACCCCCA (double strand) [8-mer CACCCCCA]
The binding signal (PBM E-score (-0.5 to 0.5)) of the first is higher: 0.484 for the first, 0.482 for the second.

“CCACCCCC (double strand) [8-mer CCACCCCC]” was tested, and the binding signal (PBM E-score (-0.5 to 0.5)) was 0.485.

Molecular target: ZC328.2 (ZC328.2) (Caenorhabditis elegans) (UniProt O02050)
Sequence (O02050 entry or part of it): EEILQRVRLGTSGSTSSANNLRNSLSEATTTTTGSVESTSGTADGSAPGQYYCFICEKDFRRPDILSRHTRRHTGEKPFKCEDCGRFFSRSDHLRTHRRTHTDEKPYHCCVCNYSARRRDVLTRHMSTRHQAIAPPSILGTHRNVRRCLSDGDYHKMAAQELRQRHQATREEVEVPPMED

Compared with “CGCCCACC (double strand) [8-mer CGCCCACC]”, “CCCCCCGC (double strand) [8-mer CCCCCCGC]” is higher in binding signal (PBM E-score (-0.5 to 0.5)): 0.484 for the first, 0.486 for the second.

Compared with “CCCCACGC (double strand) [8-mer CCCCACGC]”, “CCGCCTAC (double strand) [8-mer CCGCCTAC]” is higher in binding signal (PBM E-score (-0.5 to 0.5)): 0.485 for the first, 0.488 for the second.

Compared with “CCCCCACG (double strand) [8-mer CCCCCACG]”, “CGCCCCCC (double strand) [8-mer CGCCCCCC]” is higher in binding signal (PBM E-score (-0.5 to 0.5)): 0.48 for the first, 0.487 for the second.

Molecular target: T4, C27D6.4 (C27D6.4) (Caenorhabditis elegans) (UniProt Q4JFH9)
T4 sequence: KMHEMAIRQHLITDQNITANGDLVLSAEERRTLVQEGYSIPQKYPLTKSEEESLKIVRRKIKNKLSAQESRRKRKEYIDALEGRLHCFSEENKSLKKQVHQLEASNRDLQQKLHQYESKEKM

Going from “CACGTGTA (double strand) [8-mer CACGTGTA]” to “ACACGTGG (double strand) [8-mer ACACGTGG]”, the binding signal (PBM E-score (-0.5 to 0.5)) rises from 0.494 to 0.498.

First: ACGTGGAT (double strand) [8-mer ACGTGGAT]
Second: ACACGTGT (double strand) [8-mer ACACGTGT]
The binding signal (PBM E-score (-0.5 to 0.5)) of the first is lower: 0.492 for the first, 0.497 for the second.

Going from “CACGTGTC (double strand) [8-mer CACGTGTC]” to “ACGTGGCG (double strand) [8-mer ACGTGGCG]”, the binding signal (PBM E-score (-0.5 to 0.5)) rises from 0.496 to 0.498.

First: ACGTGTCA (double strand) [8-mer ACGTGTCA]
Second: GACGTGGC (double strand) [8-mer GACGTGGC]
The binding signal (PBM E-score (-0.5 to 0.5)) of the first is higher: 0.495 for the first, 0.494 for the second.

“CACGTGGA (double strand) [8-mer CACGTGGA]” gave a binding signal (PBM E-score (-0.5 to 0.5)) of 0.495.

Molecular target: T5, egrh-3 (Y94H6A.11) (Caenorhabditis elegans) (UniProt U4PLQ8)
T5 sequence: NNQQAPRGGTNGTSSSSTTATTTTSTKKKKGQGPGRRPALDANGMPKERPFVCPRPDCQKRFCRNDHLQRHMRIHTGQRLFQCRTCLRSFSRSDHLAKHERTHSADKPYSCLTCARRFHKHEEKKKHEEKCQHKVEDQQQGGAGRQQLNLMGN

Compared with “CCTCCCCC (double strand) [8-mer CCTCCCCC]”, “AGGGGGGG (double strand) [8-mer AGGGGGGG]” is higher in binding signal (PBM E-score (-0.5 to 0.5)): 0.496 for the first, 0.498 for the second.

Going from “CCCCCCTC (double strand) [8-mer CCCCCCTC]” to “GGGGGAGA (double strand) [8-mer GGGGGAGA]”, the binding signal (PBM E-score (-0.5 to 0.5)) falls from 0.497 to 0.493.

Going from “CCCCCCCA (double strand) [8-mer CCCCCCCA]” to “GGGGGGAA (double strand) [8-mer GGGGGGAA]”, the binding signal (PBM E-score (-0.5 to 0.5)) falls from 0.496 to 0.493.

First: GCCCCCCC (double strand) [8-mer GCCCCCCC]
Second: CCCCCCCC (double strand) [8-mer CCCCCCCC]
The binding signal (PBM E-score (-0.5 to 0.5)) of the first is lower: 0.496 for the first, 0.5 for the second.

Compared with “AGGGGGAG (double strand) [8-mer AGGGGGAG]”, “ACCCCCCC (double strand) [8-mer ACCCCCCC]” is higher in binding signal (PBM E-score (-0.5 to 0.5)): 0.493 for the first, 0.497 for the second.

“AAGGGGGG (double strand) [8-mer AAGGGGGG]” and “CCCCCCAC (double strand) [8-mer CCCCCCAC]” are the same in binding signal (PBM E-score (-0.5 to 0.5)): 0.495 for the first, 0.495 for the second.

First: AGGGGGGA (double strand) [8-mer AGGGGGGA]
Second: CTCCCCCC (double strand) [8-mer CTCCCCCC]
The binding signal (PBM E-score (-0.5 to 0.5)) of the first is lower: 0.493 for the first, 0.497 for the second.

Sequence “GGGGGGGA (double strand) [8-mer GGGGGGGA]” has a binding signal (PBM E-score (-0.5 to 0.5)) of 0.499.
